Measurements published in publication PMC7275041, “m5C modification of mRNA serves a DNA damage code to promote homologous recombination”.

Biological target: T1, RAD52 (hRAD52) (human, UniProt P43351 1-418)
T1 sequence: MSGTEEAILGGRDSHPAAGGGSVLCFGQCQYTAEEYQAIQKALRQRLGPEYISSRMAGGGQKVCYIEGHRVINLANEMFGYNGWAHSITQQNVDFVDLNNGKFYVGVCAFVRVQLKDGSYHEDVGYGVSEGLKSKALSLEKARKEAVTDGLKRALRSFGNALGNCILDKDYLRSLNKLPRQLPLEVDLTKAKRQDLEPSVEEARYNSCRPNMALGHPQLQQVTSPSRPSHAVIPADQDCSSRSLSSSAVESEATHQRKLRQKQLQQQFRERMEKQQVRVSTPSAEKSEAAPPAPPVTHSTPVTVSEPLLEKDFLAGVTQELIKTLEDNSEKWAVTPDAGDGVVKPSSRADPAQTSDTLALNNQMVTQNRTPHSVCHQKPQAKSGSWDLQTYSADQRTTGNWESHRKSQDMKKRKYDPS
Assay: EMSA; higher efficiency than unmodified N1; 1 mM Mg2+; source data at top RAD52 level (360, unit not shown): 97.3 and 99.2; EMSA: 25 mM Tris-HCl pH 7.5, 1 mM MgCl2, 1 mM DTT, 50 ug/mL BSA, 50 or 300 mM NaCl and/or 0.5% NP-40, 15 min 37 C, 6% PAGE-TBE at 4 C; pull-down: Pierce magnetic RNA-protein pull-down kit
Conditions: protein: recombinant; tags: C-terminal 6xHis (pET28b); label: 5' maleimide-IR800 on oligo 1 (DNA); blunt

B1: 50-bp m5C DNA:RNA hybrid (oligo 1/oligo 3) (DNA:RNA)
DNA: ATCATCACCATAACGTCGATGTATCAACTTCGATTAGTCACACCAATTAA
RNA: UUAAUUGGUGUGACUAAUCGAAGUUGAUACAUCGACGUUAUGGUGAUGAU
modifications: m5C at every C of the RNA strand (positions 14, 19, 30, 33, 36; five m5C)
binding result: binds
